Data as given in the nanobody polyreactivity screen of Harvey et al. (2022).

Assay: yeast display, Sf9 membrane polyspecificity reagent, FACS + sequencing; frameworks hold sequencing errors
In short: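 Nanobodies came from a synthetic yeast display library in Saccharomyces cerevisiae BJ5465, induced with galactose for 36–48 hours and stained for 1 hour at 4 °C with 10% biotinylated, detergent-solubilized Sf9 membrane reagent. Cells were enriched on streptavidin microbeads and then FACS-sorted, with low and high (top ~1%) gates set on anti-HA fluorescence for expression and streptavidin fluorescence for reagent binding. Each polyreactivity label reflects the gate a clone came from. Genes were amplified by colony PCR, sequenced by MiSeq 2 × 250 and filtered by CDR length.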

Row | Sequence | polyreactivity (PSR sort gate)
1 | QVQLVESGGGLVLARGTLRLSCPASGFTFSRYAMGWYRQAPGKERELVAAISRTGGRTYYADSVKGRFTISRDNAKNTVYLQMNSLKPVDTAVYYCARLPVHSHLRQTYAMEYWGQGTQVTVSS | high polyreactivity
2 | QVQLVESGGGLVNAGGSLRLSCAASGRITGDNAMVWYRQAPGKVRELVAAISTSRRTYYADSVKGRFTISRDNAKNTVYLQMNSLKPEDTAVYYCNAFGSNGGAMDYWGQGTQLTVSS | high polyreactivity
3 | QVQLVESGGGLVNAGGTLRLSCAASGSTFYRNAMGWYRQAPGKERELVATITYSGGSTYYADSVKGRFTNSRDNAKNTVYLQMNSLKPEDTAVYYCAVRRLRRNFVSYYYWGQGTQVTVSS | high polyreactivity
4 | QVQLVESGGGLVPAGGSLRLSCAASGFTFRRYDMGWYRHAPGKERELVAAISWSSDGTYYADSVKGRFTISRDNAKNTVYLQINSLKPEDTAVYYCAARWGTKSGRYDYWGQGTQVTVSS | high polyreactivity
5 | QVQLVESGGGLVPAGGSLRLSCAASGRIFGWYAMGWYRQAPGKEREFVAAITVTGGSTYYADSVKGRFTISRDNAKNTVYLQMNSLKPEDTAVYYCAADRWYTRTGFDYWGQGTQVTVSS | low polyreactivity
6 | QVQLVESGGGLVPAGGSLRLSCAASGRTFIKYAMGWYRQAPGKERELVAAISRSAGSTYYADSVKGRFTISRDNAKNTVYLQMNSLKPEDTAVYYCNAVTSSYLRFDYWGQGTQVSVSS | high polyreactivity
7 | QVQLVESGGGLVQAAGSLRLICAASGLTFGANDMGWSRQAPGTERELVAAIDWSGGSTFFADSVKGRFTISRDNAKNTVYLQMNTLKPEDTAVYYCAALGFGYPYPEYDSWGQGTQVTVSA | low polyreactivity
8 | QVQLVESGGGLVQAAGSLRLSCAASGFTFYSNVMGWYRQAPGKERELVAAITGRGSRTYYEDSVNGRFTISRDNAKNTVYLQMNSLKTEDTPVYYCAARYTNYGGYYWGQGTQVTVSS | high polyreactivity
9 | QVQLVESGGGLVQAAGSLRLSCAASGFTIAHYAMGRYSHAPGKERELVAGISRSGGSTYYADSVKGRFTISRDNAKNTVYLQMNILKPEDTAVYYCATVTYLKRVRYQSGYDSWGQGTQVTVSS | low polyreactivity
10 | QVQLVESGGGLVQAAGSLRLSCAASGITFGLYTMGWYRQAPGKERELVAAISWSGGGTYYADSVKGRFTISRDNAKNTVYLQMNSLKPEDTAVYYCAAPVRGSYPYSVGVDYWGQGTQVTVSS | high polyreactivity
11 | QVQLVESGGGLVQAAGSLRLSCAASGITSRFYVMGWYRQAPGKERESVAAISTRGTSTYYADSVKGRLPISRDNAKNTVYLQMNSLKPEDTAVYYCAAVGGYPYQYPYGSWGQGSQVTVSS | high polyreactivity
12 | QVQLVESGGGLVQAAGSLRLSCAASGRIFEIYAMGWYRQAPGKERELVAGITSVGSTNYADSVKGRFTISRDNAKNTVYLQMNSLKPVDTAVYYCAADTSVHSEVDYCGQGTQVTVSS | low polyreactivity
13 | QVQLVESGGGLVQAAGSLRLSCAASGRIFKLYAMGWYRQAPGKDRELVAGITASGGNTYYADSVKGRFTISRDNAKNTVYLLMNSLKPEDTAVYYCNADRYNKYWYDYWGQGTQVTVSS | high polyreactivity
14 | QVQLVESGGGLVQAAGSLRLSCAASGSIFDPNVMGWYRQAPGKERELVATISSDGTTTYADSVKGRFTISRDNAKNTVYLQMNSLKPEDTAVYYCATEWDIDPRRSVGYPIGYGYWGQGTQVTVSS | low polyreactivity
15 | QVQLVESGGGLVQAAGSLRLSCAASGSIFSTYAMGWYRQAPGKERELVAAINRGTSTNYADSVKGRFTISRDNAKNTVYLQMNSLKPEDTAVYYCAAYYRGRYGPRRSEYWGQGTQVTVSS | high polyreactivity
16 | QVQLVESGGGLVQAAGSLRLSCAASVIIFGLYTMGWYRQAPGKERELVAAISDSGGRTYYADSVKGRFTISLDNAKNTVFLQMNSLKPEDTAVYYCAAEFWYVWEYNYWGQGTQVTVSS | high polyreactivity
17 | QVQLVESGGGLVQAAGSLRLSSAASGSIFDANANGWYRQPPGKERELVAAITSGGSTYYADSVKGRFTISRVNAKNTVYLQMNSLKPEDTAVYYCAAQYYDYKTTYDYWGKGTQVTVSS | high polyreactivity
18 | QVQLVESGGGLVQAEGRLRLSCAASGRIFPHYAMGWYRQAPGKERELVAAISRSGVSTYYADSVKGRFTISRDIAKNTVYLQMNSLKPEDTAVYYCASRSYILGWRYDYWGQGTQVTVSS | high polyreactivity
19 | QVQLVESGGGLVQAEGSLRLSCAASGRTSVLYAMGWNRQAPGKEREFVAAITWNSGSTYYADSVKGRFTISRDNAKNTVYIQMTRLKPEDTAVYYCNADYYFSSYRSTYDYWGQGTQVTVSS | low polyreactivity
20 | QVQLVESGGGLVQAGAILRLICAASGRIFYRYAMGWYRQAPGKERELVAAISSGGGRTYYADSVKGRFTLSRDNAKNTVYLQMNSLKPEDTAVYYCAASGNSYEQTGGYWGQGTQVTVSS | high polyreactivity
21 | QVQLVESGGGLVQAGASLRLSCAASGFISYYYAMGWYRQAPGKERELVAAITKSGGSTYYADSVKGRFTISRDNAKNTVYLQMNSLKREDTAVYYCAAVRSTRNSTSRLYGYWGQGTQVTVSS | low polyreactivity
22 | QVQLVESGGGLVQAGASLRLSCAASGGIFAYYAMGWYRQAPGKERELVAAINRSGGSTRYADSVKGRFTNSRDNAKNTVFLQMNSLKPEETAVYYCATKRSTGYYWGQGTQVTVSS | high polyreactivity

Row | Sequence | polyreactivity (PSR sort gate)
23 | QVQLVESGGGLVQAGASLRLSCAASGGILRQNTMGWYRQAPGKERELVAAISSSGGRTYYADSVKGRFTISRDNAKNTVYLQMNSLKPEDTAVYYCNVPAKRYPYYIRQSTVSPGNYWGQGTKVTVSS | high polyreactivity
24 | QVQLVESGGGLVQAGASLRLSCAASGIIVHEYAMGWYRQAPGKERELVASISWNDGSTYADSVKGRFTISRDNAKITVYLQMNCLKPEDTAVYYCAADYPYYPFSSIYDYWGQGTQVTVSS | low polyreactivity
25 | QVQLVESGGGLVQAGASLRLSCAASGITFDPNAMGWYRQAPGKERELVAAISTRGGSTYYADSVKGRFTISRDNAKNTVYLQMNSLKPEETAVYYCNALRTGRWFDYWGQGTQVTVSS | high polyreactivity
26 | QVQLVESGGGLVQAGASLRLSCAASGNTFDVYAMGWYREAPGKERELVAAISRRGGSTSYADSVKGRFTISRDNAKNTFYFHMNSLKPEDTAVYYCNTDPGKYTPFDYLGQGTQVTVSS | high polyreactivity
27 | QVQLVESGGGLVQAGASLRLSCAASGRIYPVYTMGWYRQAPGKERELVAAITSSGGSTYYADSVKGSFTISRDNAKNTVYLQMNSLKPEDTAVYDCAKRAGWAYYYWGQGTQVTVSS | high polyreactivity
28 | QVQLVESGGGLVQAGASLRLSCAASGRTFVGYAMGWYRQAPGKERELVAAISKSSGSTYYADSVKVRFTISRDNAKNTVYLQMNSLKPEDTAVYYCNAARRQCNRYTYDYWGQGTLVTVSS | high polyreactivity
29 | QVQLVESGGGLVQAGASLRLSCAASGRTLGYYAMGWSRQEPGKERELVAAISRSGGSTYYADSVKGRFTISRDNAKNTVYLQINSLKPEDTAVYYCAATYGPSRYRYDYWGQGTQVTVSS | high polyreactivity
30 | QVQLVESGGGLVQAGASLRLSCAASGSIFAAYTMGWYRQAPGTERELVAAISVSTVSTYYADSVKGRFTISRDNAKNTVFLQMNSLKAEVTAVYYCNADATDSYTEKDEHDSWGQGTQLTVSS | low polyreactivity
31 | QVQLVESGGGLVQAGASLRLSCAASGSIFKDYAMGWYRQAPWKERDLLAAITSRTSTTYADSVKGRFTISRDNAKNTVYLQMNSLKPEDTAVYYCAVEDLGSEGWGWYKEMDYWGQGTQVTVSS | low polyreactivity
32 | QVQLVESGGGLVQAGASLRLSCAASGSIFRGNAMGWYRQAPGKERQLVAAITRSGGRTYYADSVKGRFTISRDNAKNTVYLQMISMKPEDTAVYYCAAVSSYSRYRRTYYYWGHGTQVTVSS | high polyreactivity
33 | QVQLVESGGGLVQAGASLRLSCAASGSTFDQYVMGWYRQAPCKERELVAAISRRGGSTYYADSVKGRFTISRDNEKNTVYLQMNSLQPEDTAVYYCAAPSYYRYDYWGQGTQVTVSS | high polyreactivity
34 | QVQLVESGGGLVQAGASLRLSCAASGSTFPVYAMGWYRQAPGKERELVAAITGSGARTYYADSVKVRFTISRDNAKNTVYLQMNSLKPEDTAVYYCAKRTVIAVYGYPYRYGMNYWGQGTKVTVSS | high polyreactivity
35 | QVQLVESGGGLVQAGASLRLSCSPSGRTFYYYAMGWYRPAPGKEREWVAAISQSGGSTYYADSVKGRFTISRDNAKKTVFLQMNSLKPEDTAVYYCKAYYGFGHRIYDFWGQGTQVTVSS | high polyreactivity
36 | QVQLVESGGGLVQAGASLRLSSAASGSTFSRYAMGWYRQAPGKEREFVADITFRTSSTNYADSVKGRFTISRDNAKNTVYLQMNSLKPEDTAVYDCAADVIFTWLAYSTEYDYWGQGSQVTVSS | low polyreactivity
37 | QVQLVESGGGLVQAGCILRLSCDASGRTFAPYAMGWYRQAPGKAWELVAAITNGGSPSYADSVKGRFTISRDNAKNTVYLEMNSLKREDTAVFYCAADIVSSTDYPFEYWGQGTQVTVSS | low polyreactivity
38 | QVQLVESGGGLVQAGCRLRLSCAASGFIFCYNAMGLYRQAPGKERELVAAITTAGSTNYADSVKGRFTISRDNAKNTVYVQMNSLKPEDTAVYYCNKVQLRNRYPYRYGFGDVGYWGQGTQVTVSS | low polyreactivity
39 | QVQLVESGGGLVQAGCRLRLSCAASGININAMGWYRQAPGKERELVAAISRGGSTYYADSVKGRFTISRDNAKNTVYLQMNSLKPEDTAVYYCAKLIGRWRLYHTFVKGDYWGQGTQVTVSS | high polyreactivity
40 | QVQLVESGGGLVQAGCSILLSCAASGRIFDNYAMGWSRQAPGKERELVAASRYSDDATDYADSVKGRFTISRDNAKNTVYLQMNSLIPEDPAVYYCAADVKRYGWEYGYWGQGTQVTVSS | low polyreactivity
41 | QVQLVESGGGLVQAGCSLGISCAASGSTVRGNAMGWYRQAPGKEREFVAAITVSGGSTYYADSVKGRFTLSRDNAKINVYVEMNSLKPEDNAVYYCAASVYKGWPTHYDYWGQGTQVTVSS | high polyreactivity
42 | QVQLVESGGGLVQAGCSLLLICAASGRTFCFNTMGWYRQAPGKERELVASISGSGGRTYFADSVKGRFTISRDNEKNTVYFQMNSLKPEDTAVYYCAARRYSRDYDYWGQGTQVTVSS | high polyreactivity
43 | QVQLVESGGGLVQAGCSLRCSCPDSGGIFTRYVMGWYRPAPGKEREMVAAISSRGGSTYYADSVKGRFTISRDNAKNTVYLQMNSLKPEDTAVYYSAAEQGRTSYRYYYWGQGTQVTVSS | high polyreactivity
